Measurements taken from patent publication US20240166757A1.

Columns and labels:
[1] = molecular target: hCD64 P2 mFc.67 N297A LALA-PG avi (human) (UniProt P12314); test: BLI; biotinylated avi-tagged receptor-monomeric Fc fusion on streptavidin biosensor, antibody titrated as analyte; 1:1 global fit
hFcγR 2b (human) = hFcγR 2b (human) (UniProt P31994); test: as above
[2] = molecular target: hCD70 Biotin E131664-01 (human) (UniProt P32970); test: BLI; antibody as probe on AHC (anti-Fc) biosensor, hCD70 Biotin titrated as analyte; '37 C' printed with the probe; 1:1 global fit
hCD70 Biotin E131664-01 (human), sequence (P32970 39-193 limits assumed): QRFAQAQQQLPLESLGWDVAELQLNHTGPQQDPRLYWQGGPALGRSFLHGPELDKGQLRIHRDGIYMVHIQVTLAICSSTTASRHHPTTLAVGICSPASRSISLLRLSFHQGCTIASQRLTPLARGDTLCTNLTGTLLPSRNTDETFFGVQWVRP

[3] = molecular target: hFcRN mFc.67 N297A IHH avi biotin (human) (UniProt P55899); test: BLI at pH 6.09 (row 'hFcRN pH 6.09'); biotinylated hFcRN-monomeric Fc fusion on streptavidin biosensor, antibody titrated as analyte; 1:1 global fit
[4] = molecular target: hFcRN mFc.67 N297A IHH avi biotin (human) (UniProt P55899); test: BLI at pH 7.46 (row 'hFcRN pH 7.46'); biotinylated hFcRN-monomeric Fc fusion on streptavidin biosensor, antibody titrated as analyte; 1:1 global fit
[5] = molecular target: hFcgR 3a V158 mFc.67 N297A LALAPG avi biotin (human) (UniProt P08637); test: BLI; biotinylated FcγR fusion on streptavidin biosensor, antibody titrated; 1:1 global fit
[6] = molecular target: high affinity human FcγRIIIa receptor (158V) overexpressed on CHO cells (human) (UniProt P08637); test: flow cytometry on CHO cells overexpressing human FcγRIIIa 158V (CHO/hCD16); detection with anti-human IgG-PE
high affinity human FcγRIIIa receptor (158V) overexpressed on CHO cells (human), sequence (P08637 17-254 F176V): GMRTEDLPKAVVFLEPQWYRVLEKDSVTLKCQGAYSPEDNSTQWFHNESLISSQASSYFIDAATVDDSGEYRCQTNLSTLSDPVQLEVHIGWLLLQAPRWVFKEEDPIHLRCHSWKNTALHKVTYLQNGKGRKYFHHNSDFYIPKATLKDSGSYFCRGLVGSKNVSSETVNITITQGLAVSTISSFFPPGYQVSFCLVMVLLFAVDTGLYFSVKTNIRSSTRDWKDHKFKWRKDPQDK

[7] = molecular target: cynomolgus FcγRIIIa receptor overexpressed on CHO cells (cynomolgus) (UniProt Q8SPW2); test: flow cytometry on CHO cells overexpressing cynomolgus FcγRIIIa (CHO/cynoCD16); detection with anti-human IgG-PE
cynomolgus FcγRIIIa receptor overexpressed on CHO cells (cynomolgus), sequence (Q8SPW2 17-254): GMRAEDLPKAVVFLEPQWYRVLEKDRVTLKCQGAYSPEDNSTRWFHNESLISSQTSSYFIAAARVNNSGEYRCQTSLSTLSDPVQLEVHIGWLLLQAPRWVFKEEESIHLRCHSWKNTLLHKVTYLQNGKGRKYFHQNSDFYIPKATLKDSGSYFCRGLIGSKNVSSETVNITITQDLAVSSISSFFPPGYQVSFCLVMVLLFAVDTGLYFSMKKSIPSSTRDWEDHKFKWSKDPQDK

[8] = molecular target: hFcgR 2a H131 mFc.67 N297A LALAPG avi biotin (human) (UniProt P12318); test: BLI; biotinylated avi-tagged receptor-monomeric Fc fusion on streptavidin biosensor, antibody titrated as analyte; 1:1 global fit
[9] = molecular target: hFcgR 2a R131 mFc.67 N297A LALAPG avi biotin (human) (UniProt P12318); test: as above
[10] = molecular target: hFcgR 3a F158 mFc.67 N297A LALAPG avi biotin (human) (UniProt P08637); test: as above
[11] = molecular target: hCD70 Biotin E131664-01 (human) (UniProt P32970); test: BLI; antibody as probe on AHC (anti-Fc) biosensor, hCD70 Biotin titrated as analyte; '37 C' printed with the probe; 1:1 global fit [Cont.]

hFcγR 2b (human), sequence (P31994 43-217): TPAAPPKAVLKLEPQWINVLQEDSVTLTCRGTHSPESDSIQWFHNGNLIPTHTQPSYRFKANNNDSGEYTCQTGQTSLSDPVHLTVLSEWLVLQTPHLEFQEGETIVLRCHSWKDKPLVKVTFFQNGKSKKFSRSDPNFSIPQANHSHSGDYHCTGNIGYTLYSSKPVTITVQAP

B1: SEA-CD70 (nonfucosylated h1F6) (antibody, INN chains, looked up, V domains shown, part only)
VH: QVQLVQSGAEVKKPGASVKVSCKASGYTFTNYGMNWVRQAPGQGLKWMGWINTYTGEPTYADAFKGRVTMTRDTSISTAYMELSRLRSDDTAVYYCARDYGDYGMDYWGQGTTVTVSS
VL: DIVMTQSPDSLAVSLGERATINCRASKSVSTSGYSFMHWYQQKPGQPPKLLIYLASNLESGVPDRFSGSGSGTDFTLTISSLQAEDVAVYYCQHSREVPWTFGQGTKVEIK
modifications: nonfucosylated afucosylated
Work on B1 yielded a Kd [1] of 0.42 nM, a Kd (hFcγR 2b (human)) of 27000 nM and a Kd [2] of 0.24 nM. The Kd [3] was 19 nM and the Kd [4] was 16700 nM.

B2: SGN-70 (fucosylated h1F6) (antibody, INN chains, looked up, V domains shown, part only)
VH: QVQLVQSGAEVKKPGASVKVSCKASGYTFTNYGMNWVRQAPGQGLKWMGWINTYTGEPTYADAFKGRVTMTRDTSISTAYMELSRLRSDDTAVYYCARDYGDYGMDYWGQGTTVTVSS
VL: DIVMTQSPDSLAVSLGERATINCRASKSVSTSGYSFMHWYQQKPGQPPKLLIYLASNLESGVPDRFSGSGSGTDFTLTISSLQAEDVAVYYCQHSREVPWTFGQGTKVEIK
Binder B2 has a Kd [5] of 860 nM, an EC50 (read off the curve) [6] of 1 µg/mL and an EC50 (read off the curve) [7] of 1 µg/mL. The Kd [1] was 0.66 nM, the kon [1] was 770000 M⁻¹ s⁻¹ and the Kd [8] was 2600 nM. For the same binder, the kon [8] was 100000 M⁻¹ s⁻¹, the Kd [9] was 4500 nM and the kon [9] was 77000 M⁻¹ s⁻¹. For the same binder, the Kd [10] was 5300 nM, the kon [10] was 27000 M⁻¹ s⁻¹ and the Kd (hFcγR 2b (human)) was 25000 nM. For the same binder, the kon (hFcγR 2b (human)) was 26000 M⁻¹ s⁻¹, the Kd [2] was 0.23 nM and the kon [11] was 270000 M⁻¹ s⁻¹. It also gave a Kd [3] of 17 nM, a kon [3] of 720000 M⁻¹ s⁻¹ and a Kd [4] of 15000 nM. It also gave a kon [4] of 42000 M⁻¹ s⁻¹.
